Measurements: PMC6265470, “Structural, functional and biological insights into the role of Mycobacterium tuberculosis VapBC11 toxin–antitoxin system: targeting a tRNase to tackle mycobacterial adaptation” (Nucleic Acids Research, 2018)
Values joined by “and” are separate entries in the source; they are usually repeats but may differ in a detail not shown here. Identical values can stand only once.

B1: VapB11 (shorter form, VapB11^6-72), (6x-His)-VapB11 (domain or fragment)
chain: MSRTNIDIDDELAAEVMRRFGLTTKRAAVDLALRRLVGSPLSREFLLGLEGVGWEGDLDDLRSDRPD
notes: Homodimer by AUC; also called antitoxin VapB11
B2: VapC11 toxin (purified alone) (enzyme)
chain: ILIDTSAWVEYFRATGSIAAVEVRRLLSEEAARIAMCEPIAMEILSGALDDNTHTTLERLVNGLPSLNVDDAIDFRAAAGIYRAARRAGETVRSINDCLIAALAIRHGARIVHRDADFDVIARITNLQAASFR
notes: VapC11 toxin (PIN domain ribonuclease) of the VapBC11 toxin-antitoxin system, Mycobacterium tuberculosis; 134 amino acids as printed; also called wild-type protein

Experiments:
[1] = biological target: the molecule itself; assay: […] (pH 8.0), 150 mM NaCl, […]
[2] = biological target: B2; assay: SPR; Biacore 3000; VapC11 immobilised on a CM5 chip (up to 750 RU); five concentrations of VapB11 injected; 10 mM HEPES (pH 7.5), 150 mM NaCl, 25°C, 20 μl/min; 1:1 Langmuir model with drifting baseline; details: both partners purified
AUC = biological target: the molecule itself; assay: AUC

Binder | stoichiometry N [1] | Kd [2] [nM] | koff [2] [s⁻¹] | kon [2] [M⁻¹ s⁻¹] | stoichiometry N (AUC)
B1 | 2 | ~0.6 | 0.000133 | 1.15e+06 | –
B2 | – | – | – | – | 2 and 4
